Legend:
[1] = system: TALE test backbone, repeat 5 RVD KT (synthetic (Xanthomonas TALE)); conditions: ELISA
[2] = system: TALE test backbone, repeat 5 RVD YG (synthetic (Xanthomonas TALE)); conditions: ELISA
[3] = system: TALE test backbone, repeat 5 RVD HI (synthetic (Xanthomonas TALE)); conditions: ELISA
[4] = system: TALE test backbone, repeat 5 RVD IP (synthetic (Xanthomonas TALE)); conditions: ELISA
[5] = system: TALE test backbone, repeat 5 RVD GG (synthetic (Xanthomonas TALE)); conditions: ELISA
[6] = system: TALE test backbone, repeat 5 RVD NA (synthetic (Xanthomonas TALE)); conditions: ELISA
[7] = system: TALE test backbone, repeat 5 RVD IA (synthetic (Xanthomonas TALE)); conditions: ELISA
[8] = system: TALE test backbone, repeat 5 RVD AE (synthetic (Xanthomonas TALE)); conditions: ELISA
[9] = system: TALE test backbone, repeat 5 RVD RA (synthetic (Xanthomonas TALE)); conditions: ELISA
[10] = system: TALE test backbone, repeat 5 RVD QA (synthetic (Xanthomonas TALE)); conditions: ELISA
[11] = system: TALE test backbone, repeat 5 RVD KI (synthetic (Xanthomonas TALE)); conditions: ELISA
[12] = system: TALE test backbone, repeat 5 RVD DK (synthetic (Xanthomonas TALE)); conditions: ELISA
[13] = system: TALE test backbone, repeat 5 RVD DH (synthetic (Xanthomonas TALE)); conditions: ELISA
[14] = system: TALE test backbone, repeat 5 RVD RI (synthetic (Xanthomonas TALE)); conditions: ELISA
[15] = system: TALE test backbone, repeat 5 RVD NN (Xanthomonas sp. (engineered)); conditions: RVD NN
[16] = system: TALE test backbone, repeat 5 RVD RG (synthetic (Xanthomonas TALE)); conditions: ELISA
[17] = system: TALE test backbone, repeat 5 RVD AA (synthetic (Xanthomonas TALE)); conditions: ELISA
[18] = system: TALE test backbone, repeat 5 RVD LA (synthetic (Xanthomonas TALE)); conditions: ELISA
[19] = system: TALE test backbone, repeat 5 RVD NI (Xanthomonas sp. (engineered)); conditions: RVD NI
[20] = system: TALE test backbone, repeat 5 RVD ND (Xanthomonas sp. (engineered)); conditions: RVD ND
[21] = system: TALE test backbone, repeat 5 RVD SN (synthetic (Xanthomonas TALE)); conditions: ELISA
[22] = system: TALE test backbone, repeat 5 RVD HD, standard framework (SEQ 333) (Xanthomonas sp. (engineered)); conditions: reference
[23] = system: TALE repeat framework A8T (SEQ 405) repeat 5: A8T (Xanthomonas sp. (engineered)); conditions: average of 3 experiments
[24] = system: TALE repeat framework A10L (SEQ 408) repeat 5: A10L (Xanthomonas sp. (engineered)); conditions: average of 3 experiments
[25] = system: TALE repeat framework L25Q (SEQ 419) repeat 5: L25Q (Xanthomonas sp. (engineered)); conditions: average of 3 experiments
[26] = system: TALE repeat framework I9V (SEQ 407) repeat 5: I9V (Xanthomonas sp. (engineered)); conditions: average of 3 experiments
[27] = system: TALE repeat framework T2S/P3T/D4A (SEQ 424) repeat 5: T2S,P3T,D4A (Xanthomonas sp. (engineered)); conditions: average of 3 experiments
[28] = system: TALE repeat framework R24A (SEQ 417) repeat 5: R24A (Xanthomonas sp. (engineered)); conditions: average of 3 experiments
[29] = system: TALE repeat framework T2S/P3T/D4A/T21A/Q23R/R24A (SEQ 425) repeat 5: T2S,P3T,D4A,T21A,Q23R,R24A (Xanthomonas sp. (engineered)); conditions: average of 3 experiments
[30] = system: TALE repeat framework L26A (SEQ 420) repeat 5: L26A (Xanthomonas sp. (engineered)); conditions: average of 3 experiments
[31] = system: TALE repeat framework T21A/Q23R/R24A (SEQ 423) repeat 5: T21A,Q23R,R24A (Xanthomonas sp. (engineered)); conditions: average of 3 experiments
[32] = system: TALE repeat framework V7A (SEQ 403) repeat 5: V7A (Xanthomonas sp. (engineered)); conditions: average of 3 experiments
[33] = system: TALE repeat framework A8L (SEQ 404) repeat 5: A8L (Xanthomonas sp. (engineered)); conditions: average of 3 experiments
[34] = system: TALE repeat framework V22A (SEQ 412) repeat 5: V22A (Xanthomonas sp. (engineered)); conditions: average of 3 experiments
[35] = system: TALE repeat framework Q23A (SEQ 413) repeat 5: Q23A (Xanthomonas sp. (engineered)); conditions: average of 3 experiments
[36] = system: TALE repeat framework E20A (SEQ 410) repeat 5: E20A (Xanthomonas sp. (engineered)); conditions: average of 3 experiments
[37] = system: TALE repeat framework S11A (SEQ 409) repeat 5: S11A (Xanthomonas sp. (engineered)); conditions: average of 3 experiments
[38] = system: TALE repeat framework L25A (SEQ 418) repeat 5: L25A (Xanthomonas sp. (engineered)); conditions: average of 3 experiments
[39] = system: TALE repeat framework Q23K (SEQ 415) repeat 5: Q23K (Xanthomonas sp. (engineered)); conditions: average of 3 experiments
[40] = system: TALE repeat framework Q5A (SEQ 75) repeat 5: Q5A (Xanthomonas sp. (engineered)); conditions: average of 3 experiments
[41] = system: TALE repeat framework T21A (SEQ 411) repeat 5: T21A (Xanthomonas sp. (engineered)); conditions: average of 3 experiments
[42] = system: TALE repeat framework I9A (SEQ 406) repeat 5: I9A (Xanthomonas sp. (engineered)); conditions: average of 3 experiments
[43] = system: TALE repeat framework V6A (SEQ 76) repeat 5: V6A (Xanthomonas sp. (engineered)); conditions: average of 3 experiments
[44] = system: TALE repeat framework P27L (SEQ 422) repeat 5: P27L (Xanthomonas sp. (engineered)); conditions: average of 3 experiments
[45] = system: TALE repeat framework Q23R (SEQ 414) repeat 5: Q23R (Xanthomonas sp. (engineered)); conditions: average of 3 experiments
[46] = system: TALE repeat framework P27A (SEQ 421) repeat 5: P27A (Xanthomonas sp. (engineered)); conditions: average of 3 experiments
[47] = system: TALE repeat framework Q23W (SEQ 416) repeat 5: Q23W (Xanthomonas sp. (engineered)); conditions: average of 3 experiments

**Q.** What does the source list for “TTGACCATCCT (double strand) [CCA target]”?
**A.** binding signal (normalized ELISA) [1]: 0.81; binding signal (normalized ELISA) [2]: 0.02; binding signal (normalized ELISA) [3]: 0.1; binding signal (normalized ELISA) [4]: 0.13; binding signal (normalized ELISA) [5]: 0.35; binding signal (normalized ELISA) [6]: 0.67; binding signal (normalized ELISA) [7]: 0.24; binding signal (normalized ELISA) [8]: 0; binding signal (normalized ELISA) [9]: 0.89; binding signal (normalized ELISA) [10]: 0.19; binding signal (normalized ELISA) [11]: 0.11; binding signal (normalized ELISA) [12]: 0; binding signal (normalized ELISA) [13]: 0.01; binding signal (normalized ELISA) [14]: 0.05; binding signal (normalized ELISA) [15]: 0; binding signal (normalized ELISA) [16]: 0.26; binding signal (normalized ELISA) [17]: 0.35; binding signal (normalized ELISA) [18]: 0.02; binding signal (normalized ELISA) [19]: 0.04; binding signal (normalized ELISA) [20]: 0.73; binding signal (normalized ELISA) [21]: 0.01; binding signal (normalized ELISA) [22]: 1; binding signal (normalized ELISA) [23]: 0.82; binding signal (normalized ELISA) [24]: 0.25; binding signal (normalized ELISA) [25]: 0.9; binding signal (normalized ELISA) [26]: 0.76; binding signal (normalized ELISA) [27]: 0; binding signal (normalized ELISA) [28]: 0.92; binding signal (normalized ELISA) [29]: 0; binding signal (normalized ELISA) [30]: 1; binding signal (normalized ELISA) [31]: 1.42; binding signal (normalized ELISA) [32]: 0.26; binding signal (normalized ELISA) [33]: 0.73; binding signal (normalized ELISA) [34]: 0.7; binding signal (normalized ELISA) [35]: 0.91; binding signal (normalized ELISA) [36]: 0.82; binding signal (normalized ELISA) [37]: 0.9; binding signal (normalized ELISA) [38]: 1.09; binding signal (normalized ELISA) [39]: 0.92; binding signal (normalized ELISA) [40]: 1.03; binding signal (normalized ELISA) [41]: 1.05; binding signal (normalized ELISA) [42]: 0.62; binding signal (normalized ELISA) [43]: 0.89; binding signal (normalized ELISA) [44]: 1.29; binding signal (normalized ELISA) [45]: 0.97; binding signal (normalized ELISA) [46]: 1.21; binding signal (normalized ELISA) [47]: 0.88

Source: US20110301073
